# Measured values: patent publication US20110130449A1 (ISIS INNOVATION, published 2011)
# Columns and labels:
# [1] = target: TAP-tagged Jmjd6 fusion protein (human); test: tandem affinity purification of TAP-tagged Jmjd6 from HEK293T cells, MS identification
# [2] = target: Jmjd6 active site mutant ASM1 (GFP fusion) (human, UniProt Q5R6G2 1-403); test: GFP nanotrap pulldown, Western blot
# [3] = target: Jmjd6 with an N-terminal deletion of seven amino acids (GFP fusion) (human, UniProt Q5R6G2 8-403); test: GFP nanotrap pulldown, Western blot
binding result [1],binding result [2],binding result [3],Binder
binds,–,–,"cisplatin resistance-associated overexpressed protein (CROP) (other, also called CROP protein) MISAAQLLDELMGRDRNLAPDEKRSNVRWDHESVCKYYLCGFCPAELFTNTRSDLGPCEKIHDENLRKQYEKSSRFMKVGYERDFLRYLQSLLAEVERRIRRGHARLALSQNQQSSGAAGPTGKNEEKIQVLTDKIDVLLQQIEELGSEGKVEEAQGMMKLVEQLKEERELLRSTTSTIESFAAQEKQMEVCEVCGAFLIVGDAQSRVDDHLMGKQHMGYAKIKATVEELKEKLRKRTEEPDRDERLKKEKQEREEREKEREREREERERKRRREEEEREKERARDRERRKRSRSRSRHSSRTSDRRCSRSRDHKRSRSRERRRSRSRDRRRSRSHDRSERKHRSRSRDRRRSKSRDRKSYKHRSKSRDREQDRKSKEKEKRGSDDKKSSVKSGSREKQSEDTNTESKESDTKNEVNGTSEDIKSEGDTQSN"
binds,no binding,no binding,"Splicing factor U2AF 65 kD subunit (other, also called U2 snRNP auxiliary factor 65 KDa subunit) SDFDEFERQLNENKQERDKENRHRKRSHSRSRSRDRKRRSRSRDRRNRDQRSASRDRRRRSKPLTRGAKEEHGGLIRSPRHEKKKKVRKYWDVPPPGFEHITPMQYKAMQAAGQIPATALLPTMTPDGLAVTPTPVPVVGSQMTRQARRLYVGNIPFGITEEAMMDFFNAQMRLGGLTQAPGNPVLAVQINQDKNFAFLEFRSVDETTQAMAFDGIIFQGQSLKIRRPHDYQPLPGMSENPSVYVPGVVSTVVPDSAHKLFIGGLPNYLNDDQVKELLTSFGPLKAFNLVKDSATGLSKGYAFCEYVDINVTDQAIAGLNGMQLGDKKLLVQRASVGAKNATLVSPPSTINQTPVTLQVPGLMSSQVQMGGHPTEVLCLMNMVLPEELLDDEEYEEIVEDVRDECSKYGLVKSIEIPRPVDGVEVPGCGKIFVEFTSVFDCQKAMQGLTGRKFANRVVVTKYCDPDSYHRRDFW"
